# Publication PMC10590986
# Where “and” joins values, the source holds several entries; their conditions need not be identical. Equal values may be shown once.
# Target: poliovirus 3AsolBC protein (poliovirus)
# Test: SEC
substance,measurement,value
poliovirus 3AsolBC protein (natural protein),Kd,20 to 60 µM
same,percent of the total absorbance in the leading-edge (dimer) peak,10% and 30%
